Two molecules from patent US20230399394A1 (SUNSHINE GUOJIAN PHARMACEUTICAL SHANGHAI, published 2023) can be followed below.

The term EC50 denotes the midpoint of the concentration-response curve. Read a low EC50 as a more potent agent.

Test [1] has as its target T1, Human IL-33-his (human, UniProt O95760 112-270, biotinylated with EZ-Link NHS-Biotin where used as IL-33-his-biotin).
T1 sequence: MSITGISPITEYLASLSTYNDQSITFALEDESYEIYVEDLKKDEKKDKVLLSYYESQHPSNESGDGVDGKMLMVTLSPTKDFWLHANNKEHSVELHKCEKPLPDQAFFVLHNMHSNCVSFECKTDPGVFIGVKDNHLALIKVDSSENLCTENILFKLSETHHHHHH
The experiment in a line: cell-based or functional assay.

In test [2] the target is T2, IL-33 mutant protein D65A (human, UniProt O95760 112-270).
T2 construct: Prokaryotic expression
T2 chain: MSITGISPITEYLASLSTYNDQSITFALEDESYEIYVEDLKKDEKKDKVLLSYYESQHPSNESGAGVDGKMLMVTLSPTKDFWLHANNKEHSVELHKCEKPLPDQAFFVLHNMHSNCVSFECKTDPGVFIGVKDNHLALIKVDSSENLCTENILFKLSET
The experiment in a line: ELISA as Example 9; row D65A. The method, then:
(§1) SA protein was diluted to 2 μg/mL to coat ELISA plate at 100 μL/well overnight at 4° C. The plate was washed with PBST (PBS containing 0.05% Tween20) for 3 times, and blocked with 2% BSA prepared in PBS at 200 μL/well, at room temperature for 2 h. After the plate was washed twice with PBST, IL-33-his-biotin protein was diluted to 1 μg/mL with 1% BSA prepared in PBST, and was added to ELISA plate at 100 μL/well. The plate was incubated at room temperature for 1 h, and each monoclonal antibody was diluted with 1% BSA prepared in PBST in a 3-fold gradient. The highest concentration of antibody was 10 μg/mL, and the antibody was diluted for 12 gradients. Each diluted monoclonal antibody was added to ELISA wells with 100 μL/well, and the plate was incubated at room temperature for 1 h. Each sample was added to duplicate wells in parallel. The plate was washed with PBST for 3 times, and HRP-anti human IgG Fc secondary antibody prepared with PBST was diluted at an appropriate ratio, and was added to ELISA wells at 100 μL/well. […] Each reaction solution was shaken uniformly and OD450 nm was read on a microplate reader. The data was analyzed and EC₅₀ was calculated.
(§2) Subsequently, according to the experimental method of Example 9, the affinity of the above mutant proteins to 874F7-Hu1 was determined, and IL-33 proteins (WT-1, WT-2, WT-3, and WT-4) without any mutation were set as controls.
Background: In an ELISA, binding on a coated surface is turned into a signal by an enzyme label.

Test [3] deals with T3, IL-33 mutant protein D68A (human, UniProt O95760 112-270).
T3 construct: Prokaryotic expression
T3 chain: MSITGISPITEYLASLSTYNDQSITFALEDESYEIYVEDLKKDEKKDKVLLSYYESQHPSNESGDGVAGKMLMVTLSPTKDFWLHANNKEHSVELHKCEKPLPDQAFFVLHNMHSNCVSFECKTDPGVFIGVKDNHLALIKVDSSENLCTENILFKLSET
The experiment in a line: ELISA as Example 9; row D68A. The protocol: as §1, §2

Test [4] deals with T4, IL-33 mutant protein H58A (human, UniProt O95760 112-270).
T4 construct: Prokaryotic expression
T4 chain: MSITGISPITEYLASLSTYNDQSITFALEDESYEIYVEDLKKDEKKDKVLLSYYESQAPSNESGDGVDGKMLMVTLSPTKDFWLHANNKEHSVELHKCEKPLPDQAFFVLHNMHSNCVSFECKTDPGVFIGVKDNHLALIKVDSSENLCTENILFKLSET
As to the kind of experiment: ELISA as Example 9; row H58A. The protocol: as §1, §2

For test [5], the target named is T5, IL-33 mutant protein S60A (human, UniProt O95760 112-270).
T5 construct: Prokaryotic expression; also called 560A
T5 chain: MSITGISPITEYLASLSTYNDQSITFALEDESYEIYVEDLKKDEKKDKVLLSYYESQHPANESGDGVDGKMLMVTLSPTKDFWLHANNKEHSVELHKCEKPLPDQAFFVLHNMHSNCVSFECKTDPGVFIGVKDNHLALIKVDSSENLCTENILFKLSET
The experiment in a line: ELISA as Example 9; row S60A. The protocol:
as §1, §2

The target of test [6] is T6, IL-33 protein without any mutation (WT) (human, UniProt O95760 112-270).
T6 construct: Control of the alanine scan (four runs WT-1 to WT-4); also called WT-1; WT-2
T6 sequence: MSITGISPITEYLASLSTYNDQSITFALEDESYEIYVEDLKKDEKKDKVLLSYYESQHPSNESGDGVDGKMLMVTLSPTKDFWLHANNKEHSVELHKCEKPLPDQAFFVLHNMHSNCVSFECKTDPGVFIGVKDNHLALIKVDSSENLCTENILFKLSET
The experiment in a line: ELISA as Example 9; row WT-3. The method, then: as §1, §2

The target in test [7] is T6, IL-33 protein without any mutation (WT). The experiment in a line: ELISA as Example 9; row WT-4. The protocol:
as §1, §2

The target in test [8] is T7, IL-33 mutant protein E55A (human, UniProt O95760 112-270).
T7 construct: Prokaryotic expression
T7 chain: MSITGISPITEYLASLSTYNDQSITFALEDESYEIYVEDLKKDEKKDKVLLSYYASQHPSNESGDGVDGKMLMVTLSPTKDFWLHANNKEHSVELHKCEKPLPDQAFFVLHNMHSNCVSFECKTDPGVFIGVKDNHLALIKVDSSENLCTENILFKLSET
As to the kind of experiment: ELISA as Example 9; row E55A against WT-2. The method, then:
as §1, §2

The target in test [9] is T8, IL-33 mutant protein K46A (human, UniProt O95760 112-270).
T8 construct: Prokaryotic expression
T8 chain: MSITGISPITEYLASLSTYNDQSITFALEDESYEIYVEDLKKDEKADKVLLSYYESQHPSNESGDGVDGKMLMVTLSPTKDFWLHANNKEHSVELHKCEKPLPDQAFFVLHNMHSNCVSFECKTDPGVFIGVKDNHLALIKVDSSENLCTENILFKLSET
The experiment in a line: ELISA as Example 9; row K46A against WT-1. The method, then: as §1, §2

For test [10], the target named is T9, IL-33 mutant protein N61A (human, UniProt O95760 112-270).
T9 chain: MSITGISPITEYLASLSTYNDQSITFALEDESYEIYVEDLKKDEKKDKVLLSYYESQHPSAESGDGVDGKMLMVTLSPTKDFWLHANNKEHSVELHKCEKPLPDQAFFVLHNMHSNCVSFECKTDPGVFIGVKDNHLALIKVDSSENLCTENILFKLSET
The experiment in a line: ELISA as Example 9; row N61A against WT-3. The method, then: as §1, §2

B1: 874F7-Hu1 (antibody, human IgG4 S228P, kappa)
heavy: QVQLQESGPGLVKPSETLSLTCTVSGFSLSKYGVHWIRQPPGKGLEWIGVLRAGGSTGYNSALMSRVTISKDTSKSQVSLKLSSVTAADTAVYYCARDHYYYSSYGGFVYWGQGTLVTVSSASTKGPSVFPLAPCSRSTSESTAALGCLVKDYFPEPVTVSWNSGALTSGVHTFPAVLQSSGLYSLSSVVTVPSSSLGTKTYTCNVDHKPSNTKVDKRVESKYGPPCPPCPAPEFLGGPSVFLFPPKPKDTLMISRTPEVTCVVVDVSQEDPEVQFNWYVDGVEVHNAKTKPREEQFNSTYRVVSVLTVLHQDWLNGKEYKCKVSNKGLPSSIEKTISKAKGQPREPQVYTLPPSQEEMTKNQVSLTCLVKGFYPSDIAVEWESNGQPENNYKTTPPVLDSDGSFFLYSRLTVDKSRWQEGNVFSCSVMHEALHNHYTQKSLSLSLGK
light: DIQMTQSPSSVSASVGDRVTITCLASQTIGAWLAWYQQKPGKSPKLLIYAATRLADGVPSRFSGSGSGTDFTLTISSLQPEDFATYYCQQLDSSPYTFGQGTKVEIKRTVAAPSVFIFPPSDEQLKSGTASVVCLLNNFYPREAKVQWKVDNALQSGNSQESVTEQDSKDSTYSLSSTLTLSKADYEKHKVYACEVTHQGLSSPVTKSFNRGEC
notes: also called 874F7-Hul; humanized antibody 874F7-Hu1
Consider B1, for which the “IC50 of inhibition of IFNγ secretion by NK cells induced by IL-33” value in test [1] is 0.742 nM. Moreover, the “IC50 of inhibition of IL-5 secretion of KU812 cells induced by IL-33” value in test [1] was found to be 7.83 nM. Also, the “IC50 of inhibition of IL-13 secretion of KU812 cells induced by IL-33” value in test [1] was 5.22 nM. Moreover, in test [1], the “IC50 of the inhibitory effect on IL-6 expression in HUVEC cells induced by IL-33” value was determined as 0.051 nM. Also, in test [1], the “IC50 of the inhibitory effect on the IFN-γ secretion of PBMC induced by IL-33” value was 0.85 nM. For the same molecule, the EC50 is 35.3 nM in test [2]; 0.22 nM in test [3]; 0.43 nM in [4]; 5.31 nM in test [5]; 0.18 nM in test [6]; 0.12 nM in test [7]. The values for the Affinity decline ratio in test [8], in test [9] and in [10] were 2.5 fold, 1 fold and 0.8 fold, respectively.

B2: 874F7 (antibody, V domains shown)
VH: QVQLKESGPGLVAPSHSLSITCNVSGFSLSKYGVHWIRQIPGRGLDWLGVLRAGGSTGYNSALMSRLSISKDSSKSQVFLKMNDLRTDDTAVYFCVRDHYYYSSYGGFVYWGQGTLVTVSA
VL: DIQMTQSPASQSASLGESVTITCLASQTIGAWLAWYRQQPGKSPQLLIYAATRLADGVPSRFSGSGSGTEFSFKINNLQAEDFVSYYCQQLDSSPYTFGGGTRLEM
notes: Murine hybridoma antibody purified on Protein G; also called murine antibody 874F7
Take B2: in [1], the “IC50 of inhibition of IL-33-induced IL-6 expression in HUVEC cells” value was 0.65 nM and the “IC50 of inhibition of IL-33-induced IL-8 expression in HUVEC cells” value amounted to 0.35 nM.
